Test results as given in patent US20080260731A1.

Molecular target: human V158 FcγRIIIa (FcγR-His) (human) (UniProt P08637)
Experiment: Biacore SPR

Sequence of human V158 FcγRIIIa (FcγR-His) (human) (P08637 17-208 F176V limits assumed): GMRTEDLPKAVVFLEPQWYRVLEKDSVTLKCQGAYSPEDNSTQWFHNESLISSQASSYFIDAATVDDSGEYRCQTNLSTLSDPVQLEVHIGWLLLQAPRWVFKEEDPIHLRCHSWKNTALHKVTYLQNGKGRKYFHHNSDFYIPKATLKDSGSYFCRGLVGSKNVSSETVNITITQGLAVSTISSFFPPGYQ

- Kd: 240 nM
Substance: 4G7 IgG1 antibody (chimeric, murine H0/L0 variable regions on human IgG1/kappa)
